Test results taken from PMC7367873, “Dissecting the sequence determinants for dephosphorylation by the catalytic subunits of phosphatases PP1 and PP2A” (Nature Communications, 2020).

Biological target: T1, PP1c (Homo sapiens, UniProt P62136)
T1 construct: His tag with TEV site (N, cleaved yes); intein (pTXB1) (C, cleaved yes); made in house; host or cells: E. coli BL21Star(DE3)pRARE
Experiment: Phosphoproteome dephosphorylation assay of HeLa Kyoto lysate with recombinant PP1c (TMT phosphoproteomics)
Assay type: biochemical
Conditions: 1 µM recombinant phosphatase, 1 h at 30 °C, 20 nM Calyculin A, three replicates
Protocol: For phosphoproteomics, HeLa Kyoto cells were incubated with 20 nM Calyculin A (CST, #9902) for 10–15 min. This time point was determined empirically to yield maximal phosphatase inhibition without cells showing pleiotropic effects. Subsequently, cells were placed on ice and washed twice with cold PBS and scraped in lysis buffer (100 mM NaCl, 10 mM Tris, 0.1% IGEPAL, 1 mM EDTA, 1 mM EGTA, 20 nM Calyculin A, 1x cOmplete Mini protease inhibitor cocktail (Sigma), 1 mM DTT, 1 mM MnCl2, pH 7.5). After 10 pushes through an injection needle (21 G, BD), lysate was cleared from the insoluble fraction by centrifugation (10 min, 10^4 rcf, 4 °C). Protein concentration was then determined by a Bradford Assay and equal amounts of 1 mg total protein were incubated with recombinant PP1c/PP2Ac or buffer at a final phosphatase concentration of 1 µM in a total volume of 200 µL for 1 h at 30 °C. Lysates were then immediately placed on ice. PhosStop […] (Roche) was added and proteins were denatured by adding urea to a final concentration of 8 M taking into account the volume increase. Samples were then snap-frozen in liquid nitrogen for storage and subsequent MS analysis.
Treated lysates were reduced (10 mM DTT, 30 °C, 30 min) and alkylated (50 mM chloroacetamide, room temperature, 30 min, in the dark), and then diluted to 1.3 M urea using 40 mM Tris-HCl (pH 7.6). […]

T1 sequence (P62136 whole entry): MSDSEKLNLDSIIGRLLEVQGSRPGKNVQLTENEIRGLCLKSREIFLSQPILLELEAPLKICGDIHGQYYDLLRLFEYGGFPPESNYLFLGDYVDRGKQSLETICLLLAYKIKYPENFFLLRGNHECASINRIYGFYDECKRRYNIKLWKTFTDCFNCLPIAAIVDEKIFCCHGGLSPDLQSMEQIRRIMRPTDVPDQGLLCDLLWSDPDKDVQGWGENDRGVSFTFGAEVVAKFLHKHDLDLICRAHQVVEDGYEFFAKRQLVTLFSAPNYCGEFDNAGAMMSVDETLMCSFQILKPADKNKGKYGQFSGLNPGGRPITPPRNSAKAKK

PP1c: recombinant catalytic subunit of PP1
number of class I p-sites dephosphorylated by PP1: 1967 p-sites
